Measured values taken from patent US20220332804A1 (CSL INNOVATION, published 2022).

Key:
Experiment in all cases: SPR, KD relative to WT C2;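 also: biacore SPR at 37 °C, anti-C2 mAbs captured on anti-human IgG chips with alanine or serine point mutants of C2 as analyte, KD from 1:1 fit compared with wild-type C2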
human C2 R493A = target: T1, human C2 R493A (human, UniProt P06681 21-752)
T1 sequence: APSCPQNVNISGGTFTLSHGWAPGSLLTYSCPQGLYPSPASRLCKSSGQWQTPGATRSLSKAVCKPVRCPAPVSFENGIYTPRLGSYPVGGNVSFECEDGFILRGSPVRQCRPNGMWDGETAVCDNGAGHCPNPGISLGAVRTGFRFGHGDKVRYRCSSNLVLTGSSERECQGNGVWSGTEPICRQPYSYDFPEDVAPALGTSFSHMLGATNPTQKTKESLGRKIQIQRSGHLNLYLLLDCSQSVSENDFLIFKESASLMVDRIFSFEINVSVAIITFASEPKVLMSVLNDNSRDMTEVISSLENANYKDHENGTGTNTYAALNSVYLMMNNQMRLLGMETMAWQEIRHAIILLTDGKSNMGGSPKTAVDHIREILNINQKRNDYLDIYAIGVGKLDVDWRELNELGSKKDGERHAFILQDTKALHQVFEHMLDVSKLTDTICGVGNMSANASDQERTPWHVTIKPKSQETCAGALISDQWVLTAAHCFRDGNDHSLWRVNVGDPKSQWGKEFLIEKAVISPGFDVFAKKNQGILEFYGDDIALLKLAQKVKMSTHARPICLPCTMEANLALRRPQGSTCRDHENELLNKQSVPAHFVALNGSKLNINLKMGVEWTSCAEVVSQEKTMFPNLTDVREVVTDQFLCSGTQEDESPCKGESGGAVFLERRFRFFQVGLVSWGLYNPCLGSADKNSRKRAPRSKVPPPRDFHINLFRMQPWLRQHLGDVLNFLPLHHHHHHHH

human C2 K244A = target: T2, human C2 K244A (human, UniProt P06681 21-752)
T2 sequence: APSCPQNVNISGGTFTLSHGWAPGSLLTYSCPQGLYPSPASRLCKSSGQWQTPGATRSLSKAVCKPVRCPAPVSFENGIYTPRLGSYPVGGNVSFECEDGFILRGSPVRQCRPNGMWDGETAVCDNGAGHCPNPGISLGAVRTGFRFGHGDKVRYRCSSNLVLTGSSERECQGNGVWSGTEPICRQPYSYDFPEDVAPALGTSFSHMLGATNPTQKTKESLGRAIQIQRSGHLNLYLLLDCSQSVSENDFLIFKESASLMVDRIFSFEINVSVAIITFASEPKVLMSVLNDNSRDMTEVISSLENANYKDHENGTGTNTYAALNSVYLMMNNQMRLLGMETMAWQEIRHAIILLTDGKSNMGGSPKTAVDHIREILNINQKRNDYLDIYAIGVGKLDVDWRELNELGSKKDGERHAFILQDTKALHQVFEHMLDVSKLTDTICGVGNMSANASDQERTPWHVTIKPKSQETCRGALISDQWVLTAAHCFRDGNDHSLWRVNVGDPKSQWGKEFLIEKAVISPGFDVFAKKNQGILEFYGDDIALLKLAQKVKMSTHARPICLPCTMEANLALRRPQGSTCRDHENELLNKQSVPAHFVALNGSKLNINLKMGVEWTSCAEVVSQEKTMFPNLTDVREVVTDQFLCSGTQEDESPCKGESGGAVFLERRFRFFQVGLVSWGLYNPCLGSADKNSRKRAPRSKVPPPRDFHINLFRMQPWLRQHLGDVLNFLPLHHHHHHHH

human C2 S428A = target: T3, human C2 S428A (human, UniProt P06681 21-752)
T3 sequence: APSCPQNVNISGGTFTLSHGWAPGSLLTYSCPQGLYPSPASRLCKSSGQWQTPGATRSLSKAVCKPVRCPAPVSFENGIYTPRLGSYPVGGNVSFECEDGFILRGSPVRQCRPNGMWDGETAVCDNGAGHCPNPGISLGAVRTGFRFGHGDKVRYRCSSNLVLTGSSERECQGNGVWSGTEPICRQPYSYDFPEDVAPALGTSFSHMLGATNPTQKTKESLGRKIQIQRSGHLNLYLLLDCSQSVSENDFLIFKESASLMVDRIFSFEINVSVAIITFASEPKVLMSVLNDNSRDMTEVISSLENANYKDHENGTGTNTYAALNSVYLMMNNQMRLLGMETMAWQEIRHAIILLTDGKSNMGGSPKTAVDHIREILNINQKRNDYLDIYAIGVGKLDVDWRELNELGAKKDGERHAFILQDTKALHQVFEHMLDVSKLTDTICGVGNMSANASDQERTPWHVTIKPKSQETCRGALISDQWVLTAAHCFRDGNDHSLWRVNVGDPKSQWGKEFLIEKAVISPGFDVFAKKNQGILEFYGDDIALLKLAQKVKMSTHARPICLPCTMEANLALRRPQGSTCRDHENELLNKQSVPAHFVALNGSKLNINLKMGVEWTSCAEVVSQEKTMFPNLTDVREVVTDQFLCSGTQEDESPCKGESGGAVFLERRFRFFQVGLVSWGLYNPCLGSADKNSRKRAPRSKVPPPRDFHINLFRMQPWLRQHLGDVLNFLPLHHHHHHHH

human C2 G432A = target: T4, human C2 G432A (human, UniProt P06681 21-752)
T4 sequence: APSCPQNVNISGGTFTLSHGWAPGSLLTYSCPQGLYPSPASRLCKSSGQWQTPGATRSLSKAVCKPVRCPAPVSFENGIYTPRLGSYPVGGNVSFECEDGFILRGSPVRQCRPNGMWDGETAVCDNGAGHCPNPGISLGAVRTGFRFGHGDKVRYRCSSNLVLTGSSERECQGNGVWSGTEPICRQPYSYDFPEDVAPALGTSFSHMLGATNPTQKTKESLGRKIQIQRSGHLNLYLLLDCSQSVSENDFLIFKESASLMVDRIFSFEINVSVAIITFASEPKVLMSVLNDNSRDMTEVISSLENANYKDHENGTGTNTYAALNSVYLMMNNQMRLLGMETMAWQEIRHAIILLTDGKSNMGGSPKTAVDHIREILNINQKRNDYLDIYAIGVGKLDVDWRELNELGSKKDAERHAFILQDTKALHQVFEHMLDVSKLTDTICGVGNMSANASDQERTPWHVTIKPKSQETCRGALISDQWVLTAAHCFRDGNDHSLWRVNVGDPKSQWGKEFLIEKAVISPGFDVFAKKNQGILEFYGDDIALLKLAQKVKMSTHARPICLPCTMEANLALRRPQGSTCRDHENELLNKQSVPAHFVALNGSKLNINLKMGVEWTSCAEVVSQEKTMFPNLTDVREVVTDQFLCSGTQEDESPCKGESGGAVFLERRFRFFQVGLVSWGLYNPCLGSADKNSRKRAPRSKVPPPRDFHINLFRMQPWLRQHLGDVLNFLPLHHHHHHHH

B1: RF16-242 (antibody, human IgG4 S228P, lambda, V domains shown)
VH: EVQLLQSGAEVKKPGESLKISCKGSGYSFTSYWIGWVRQMPGKGLEWMGIIYPGDSDTRYSPSFQGQVTISADKSISTAYLQWSSLKASDTAMYYCARRGHYGDYFDYWGQGTLVTVSS
VL: SYELTQPPSVSVSPGQTARITCSGDALPKKYAYWYHQKSGQAPVLVIYEDRRRPSEIPERFSGSSSGTMATLTITGAQVEDEGVYFCYSRDRAGNQRVFGGGTQLTVLG
notes: pH-dependent anti-C2 antibody from a phage display library
Human C2 R493A
  Fold diff: 1 fold
Human C2 K244A
  Fold diff: 4 fold
Human C2 S428A
  Fold diff: 3 fold
Human C2 G432A
  Fold diff: 1 fold
